Assay results reported in patent publication US20210363257A1 (Pieris, published 2021).

Tests used:
[1] = molecular target: T1, huCD137-His (human CD137 with a C-terminal polyhistidine tag) (human, UniProt Q07011 24-186); assay: SPR (Biacore), binder captured by anti-human IgG Fc, huCD137-His in solution, 25 C, 1:1 model
T1 construct: Bought; also called huCD137-His-Bio
Protocol: (§1) The binding kinetics and affinity of exemplary fusion proteins to huPD-L1-His or huCD137-His (human PD-L1 or human CD137 with a C-terminal polyhistidine tag, R&D Systems) were determined by surface plasmon resonance (SPR) using a Biacore 8K or a Biacore T200 (GE Healthcare).
(§2) The anti-human IgG Fc antibody (GE Healthcare) was immobilized on a CM5 sensor chip using standard amine chemistry: the carboxyl groups on the chip were activated using 1-ethyl-3-(3-dimethylaminopropyl)-carbodiimide (EDC) and N-hydroxysuccinimide (NHS). Subsequently, anti-human IgG Fc antibody solution (GE Healthcare) at a concentration of 25 μg/mL in 10 mM sodium acetate (pH 5.0) was applied at a flow rate of 5 μL/min until an immobilization level of 6000-10000 resonance units (RU) was achieved. Residual non-reacted NHS-esters were blocked by passing a solution of 1M ethanolamine across the surface. The reference channel was treated in an analogous manner. […] After each capture step, the needle was washed.
(§3) Double referencing was used and the 1:1 binding model was used to fit the raw data.

[2] = molecular target: T2, huPD-L1-His (human PD-L1 with a C-terminal polyhistidine tag) (human, UniProt Q9NZQ7 19-239); assay: dual-binding ELISA, huPD-L1-His coated, binder titrated, detection with biotinylated huCD137-His; PD-L1 capture, CD137 detection (simultaneous binding of both targets)
T2 construct: Bought; also called biotinylated huPD-L1-His
Protocol: (§4) Recombinant huPD-L1-His (R&D Systems) in PBS (1 μg/mL) was coated overnight on microtiter plates at 4° C. The plates were washed five times after each incubation step with 100 μL PBS-0.05% T. The plates were blocked with 2% BSA (w/v) in PBS-0.1% T for 1 h at room temperature and subsequently washed again. Different concentrations of tested fusion proteins were added to the wells and incubated for 1 h at room temperature, followed by a wash step. […] After washing, a 1:5000 dilution of ExtrAvidin-HRP (Sigma-Aldrich) in PBS-0.1% T-2% BSA was added to the wells and incubated for 1 h. After an additional wash step, fluorogenic HRP substrate (QuantaBlu, Thermo) was added to each well, and the fluorescence intensity was detected using a fluorescence microplate reader.

[3] = molecular target: T2, huPD-L1-His (human PD-L1 with a …); assay: SPR (Biacore), binder captured by anti-human IgG Fc, huPD-L1-His in solution, 25 C, 1:1 model
Protocol: as §1, §2, §3

[4] = molecular target: T1, huCD137-His (human CD137 with a …); assay: ELISA, huCD137-His coated, detection anti-NGAL-HRP
Protocol: (§5) Recombinant huPD-L1-His or cyPD-L1-His (human or cynomolgus PD-L1 with a C-terminal polyhistidine tag, R&D Systems or Sino Biologics) at the concentration of 1 μg/mL in PBS was coated overnight on microtiter plates at 4° C. After washing with PBS-0.05% T (PBS supplemented with 0.05% (v/v) Tween 20), the plates were blocked with 2% BSA (w/v) in PBS-0.1% T (PBS supplemented with 0.1% (v/v) Tween 20) for 1 h at room temperature. […] Bound molecules under study were detected by incubation with 1:5000 diluted anti-human IgG Fc-HRP (Jackson Laboratory) in PBS-0.1% T-2% BSA. After an additional wash step, fluorogenic HRP substrate (QuantaBlu, Thermo) was added to each well and the fluorescence intensity was detected using a fluorescence microplate reader.
(§6) The same ELISA setup was also employed to determine the binding potency of fusion proteins to CD137, where huCD137-His (human CD137 with C-terminal polyhistidine tag, R&D Systems) or cyCD137-Fc (cynomolgus CD137 C-terminally fused to Fc) was instead coated on a microtiter plate. The testing agents were similarly titrated and bound agents were detected via anti-NGAL-HRP.

[5] = molecular target: T2, huPD-L1-His (human PD-L1 with a …); assay: ELISA, huPD-L1-His coated, detection anti-human IgG Fc-HRP
Protocol: as §5

[6] = molecular target: cyCD137-Fc (cynomolgus CD137 C-terminally fused to Fc) (cynomolgus); assay: ELISA, cyCD137-Fc coated, detection anti-NGAL-HRP
Protocol: as §5, §6

[7] = molecular target: human PD-L1 expressed on cells (human, UniProt Q9NZQ7 19-290); assay: cell-based or functional assay
[8] = molecular target: T2, huPD-L1-His (human PD-L1 with a …); assay: dual-binding ELISA, huPD-L1-His coated, binder titrated, detection with biotinylated huCD137-His
Protocol: as §4

T1 sequence (Q07011 24-186 limits assumed): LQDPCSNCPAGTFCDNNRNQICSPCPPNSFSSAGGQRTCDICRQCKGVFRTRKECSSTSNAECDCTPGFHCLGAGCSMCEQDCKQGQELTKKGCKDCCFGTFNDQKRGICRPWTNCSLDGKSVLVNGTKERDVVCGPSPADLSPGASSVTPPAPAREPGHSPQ
T2 sequence (Q9NZQ7 19-239 limits assumed): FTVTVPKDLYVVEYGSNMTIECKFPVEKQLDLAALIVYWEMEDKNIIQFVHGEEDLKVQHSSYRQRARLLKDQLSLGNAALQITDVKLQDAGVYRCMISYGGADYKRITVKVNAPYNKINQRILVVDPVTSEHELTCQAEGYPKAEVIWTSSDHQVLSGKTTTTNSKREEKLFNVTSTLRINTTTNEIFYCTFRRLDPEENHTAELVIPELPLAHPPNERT
Chain of human PD-L1 expressed on cells (Q9NZQ7 19-290): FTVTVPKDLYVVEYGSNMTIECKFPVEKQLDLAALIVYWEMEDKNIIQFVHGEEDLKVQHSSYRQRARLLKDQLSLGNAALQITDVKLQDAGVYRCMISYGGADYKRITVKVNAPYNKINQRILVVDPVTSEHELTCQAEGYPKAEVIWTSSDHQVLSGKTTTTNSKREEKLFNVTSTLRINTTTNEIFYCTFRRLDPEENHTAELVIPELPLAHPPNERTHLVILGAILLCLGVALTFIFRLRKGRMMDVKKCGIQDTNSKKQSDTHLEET

Kd [1] [pM]	koff [1] [s⁻¹]	kon [1] [M⁻¹ s⁻¹]	EC50 [2] [pM]	Kd [3] [pM]	koff [3] [s⁻¹]	kon [3] [M⁻¹ s⁻¹]	EC50 [4] [pM]	EC50 [5] [pM]	EC50 [6] [pM]	EC50 [nM] (PD-1/PD-L1 blockade bioassay, NFAT-RE-mediated luminescence) [7]	EC50 [8] [pM]	Binder
6480	0.000255	39300	580	592	0.000769	1.3e+06	280	150	5900	0.49		fusion protein SEQ ID NOs: 90 and 87 (bispecific antibody, human IgG4 S228P, kappa, F234A L235A, Bivalent to CD137) heavy: not shown light: EIVLTQSPDTLSVTPKEKVTLTCRASQSIGTNIHWFQQKPGQSPKLLIKYASESISGVPSRFSGSGSGTDFTLTINSVEAEDAATYYCQQSNSWPYTFGQGTKLEIKRTVAAPSVFIFPPSDEQLKSGTASVVCLLNNFYPREAKVQWKVDNALQSGNSQESVTEQDSKDSTYSLSSTLTLSKADYEKHKVYACEVTHQGLSSPVTKSFNRGEC
5110	0.000175	34200		568	0.000748	1.32e+06	570	230	13000		590	fusion protein SEQ ID NOs: 86 and 91 (bispecific antibody, human IgG4 S228P, kappa, F234A L235A, Antibody-lipocalin mutein fusion, IgG4 S228P backbone; Bivalent to CD137) heavy: not shown light: EIVLTQSPDTLSVTPKEKVTLTCRASQSIGTNIHWFQQKPGQSPKLLIKYASESISGVPSRFSGSGSGTDFTLTINSVEAEDAATYYCQQSNSWPYTFGQGTKLEIKRTVAAPSVFIFPPSDEQLKSGTASVVCLLNNFYPREAKVQWKVDNALQSGNSQESVTEQDSKDSTYSLSSTLTLSKADYEKHKVYACEVTHQGLSSPVTKSFNRGECGGGGSGGGGSGGGGSQDSTSDLIPAPPLSKVPLQQNFQDNQFHGKWYVVGQAGNIRLREDKDPIKMMATIYELKEDKSYDVTMVKFDDKKCMYDIWTFVPGSQPGEFTLGKIKSFPGHTSSLVRVVSTNYNQHAMVFFKFVFQNREEFYITLYGRTKELTSELKENFIRFSKSLGLPENHIVFPVPIDQCIDG
